What all share (assay): ELISA
Holding throughout (settings): both partners purified
(In general: An ELISA detects its analyte on a solid surface through an enzyme-linked reagent.)

Assay [1] addresses T1, angiotensin-converting enzyme-2 (ACE2), biotinylated (Homo sapiens, assumed, UniProt Q9BYF1, biotin).
T1 construct: also called host protein

In assay [2] the target is SARS-CoV-2 wild-type (WT) receptor-binding domain (RBD) (SARS-CoV-2, wild type (Wuhan-Hu-1 …, UniProt P0DTC2)).
For assay [3], the target named is SARS-CoV-2 wild-type (WT) N-terminal domain (NTD) of the spike protein (SARS-CoV-2, wild type (Wuhan-Hu-1 …, UniProt P0DTC2)).

T1 sequence (Q9BYF1 18-805): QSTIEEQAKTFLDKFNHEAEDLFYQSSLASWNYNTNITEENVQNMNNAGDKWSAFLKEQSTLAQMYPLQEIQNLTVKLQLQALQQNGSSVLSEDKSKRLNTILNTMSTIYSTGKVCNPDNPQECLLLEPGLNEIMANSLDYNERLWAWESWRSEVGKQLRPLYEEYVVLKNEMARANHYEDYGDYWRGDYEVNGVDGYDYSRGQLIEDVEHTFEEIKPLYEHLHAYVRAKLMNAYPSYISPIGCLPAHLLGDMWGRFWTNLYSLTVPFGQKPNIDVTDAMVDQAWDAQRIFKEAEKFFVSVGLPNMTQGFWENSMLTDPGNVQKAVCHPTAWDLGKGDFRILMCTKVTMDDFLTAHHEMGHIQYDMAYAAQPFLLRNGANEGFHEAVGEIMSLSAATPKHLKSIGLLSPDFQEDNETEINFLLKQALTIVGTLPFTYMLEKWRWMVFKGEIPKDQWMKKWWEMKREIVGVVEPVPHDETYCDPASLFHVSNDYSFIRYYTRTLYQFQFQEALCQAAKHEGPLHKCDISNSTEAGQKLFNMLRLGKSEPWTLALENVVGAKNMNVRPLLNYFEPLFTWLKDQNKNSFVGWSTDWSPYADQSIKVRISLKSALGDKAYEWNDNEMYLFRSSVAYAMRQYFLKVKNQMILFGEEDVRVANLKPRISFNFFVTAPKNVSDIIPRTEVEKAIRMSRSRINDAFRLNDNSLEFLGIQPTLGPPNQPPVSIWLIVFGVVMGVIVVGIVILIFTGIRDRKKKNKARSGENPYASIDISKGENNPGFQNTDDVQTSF

B1: AB6-17 (antibody, V domains shown)
VH: QLQLQESGPGLVESSETLSLTCTVSSGSISRSTYYWGWIRQPPGKGMEWIGSISSGGSTYYNPSLNSRVTISIDTSKNQFSLKLRSVTAADTAVYYCARALQWPSPRIDYWAQGTLVTVSS
VL: DIQMTQSPSSLSASVGDRVTITCRASQSISSYLNWYQHKPGKAPKLLIYAASSLESGVPSRFTGSGSGTDFTLTIDSLQPEDFATYYCQQSYSTPLFTFGPGTTVDIK
As for B1, the binding result was “no binding” in assay [1] and “binds” in assay [2].

B2: AB5-20 (antibody, V domains shown)
VH: QVQLVESGGGVVQPGRSLRLSCTASGFTFRHYGLHWVRQAPGKGLEWVAVILYDGSDEDYRDSVKGRFTISRDNSKNTLYLQMNSLRPEDTAVYYCAKQSGPYCSGGNCYSGHFDYWGQGTPVSVSS
VL: DIQMTQSPSSLSASVGDRVTITCQASQDISKSLSWYEQKPGKAPRLLIFEASNLETGVPSRFSGSGSGTSFSFTISSLQPEDFATYYCQQYDNVPLTFGGGTKVERK
As for B2, the values for the binding result in assay [1] and in assay [2] were “no binding” and “binds”, respectively.

B3: AB5-16 (antibody, V domains shown)
VH: QALMVQSEAAVKKPGASVKVSCKATGDAFSNHYLHWLRQAPGQGLEWLGIINPGAGSTTYAQKFQGRLTVTTDTSTNTVYMELSSLRSDDTAVYYCARDGAFIPSSYYYGMDVWGQGTTVTVSS
VL: EIVLTQSPGTLALSPGERATLSCRASQSVSSSYLAWYQQKPGQAPRLLIYGASSRATGVPDRFSGSGSGTDFTLTVSSLEPEDFAVYYCQQREAFGQGTKVEVK
For B3, the binding result is given as “no binding” in assay [1] and “binds” in assay [2].

B4: AB5-12 (antibody, V domains shown)
VH: QVQLQESGPGLVRPSQALSLTCTVSGGSISSEGYYWGWIRQHPGKGLEWIGYIYYTGNAYYNPSLQSRIDISVDTSANQFSLRLNSVTAADTAVYYCASDSFKGGFDSWGQGALVTVSS
VL: EIVLTQSPTTLSLSPGERATLSCRASQTVSGSVAWYQQKPGQAPRLVIYDVSYRATGIPARFSGSGSGTDFTLTISSLEPEDFAVYYCQERRKAFGQGTTVEIK
Consider B4, for which the binding result in assay [3] and in assay [2] was “no binding” in each case.

B5: AB5-5 (antibody, V domains shown)
VH: QISLKESGPTLVQPTQTLTLTCTFSGFSLSSSGVGVGWIRQPPGKALEWLALLYWNDDKRYSPSLRTRLTITKDSSKNQVVLTMTNMDPMDTATYYCAHPRQTTVTTVFGLYPRPAAFDVWGPGTMVTVSS
VL: QSFLTQPPSVSGAPGQRVTISCTGSSSNIGAGYGVDWYQQLPGTAPKLLIYDNNNRPSGVPDRFSGSTSGTSASLAITGLHAEDEADYYCQSYDRSLSGSVVFGGGTKLTVL
For the molecule B5, the binding result in assay [3] and in assay [2] was “no binding” in each case.

Values taken from paper PMC11893383 (Frontiers in Immunology, 2025).
